Laboratory results reported in patent US20220308056.

Target: recombinant SARS-Cov-2 nucleocapsid protein (NP2), P0DTC9

B1: recombinant MASP-2 (rMASP-2) of Example 23 (protein)
chain: TPLGPKWPEPVFGRLASPGFPGEYANDQERRWTLTAPPGYRLRLYFTHFDLELSHLCEYDFVKLSSGAKVLATLCGQESTDTERAPGKDTFYSLGSSLDITFRSDYSNEKPFTGFEAFYAAEDIDECQVAPGEAPTCDHHCHNHLGGFYCSCRAGYVLHRNKRTCSALCSGQVFTQRSGELSSPEYPRPYPKLSSCTYSISLEEGFSVILDFVESFDVETHPETLCPYDFLKIQTDREEHGPFCGKTLPHRIETKSNTVTITFVTDESGDHTGWKIHYTSTAQPCPYPMAPPNGHVSPVQAKYILKDSFSIFCETGYELLQGHLPLKSFTAVCQKDGSWDRPMPACSIVDCGPPDDLPSGRVEYITGPGVTTYKAVIQYSCEETFYTMKVNDGKYVCEADGFWTSSKGEKSLPVCEPVCGLSARTTGGRIYGGQKAKPGDFPWQVLILGGTTAAGALLYDNWVLTAAHAVYEQKHDASALDIRMGTLKRLSPHYTQAWSEAVFIHEGYTHDAGFDNDIALIKLNNKVVINSNITPICLPRKEAESFMRTDDIGTASGWGLTQRGFLARNLMYVDIPIVDHQKCTAAYEKPPYPRGSVTANMLCAGLESGGKDSCRGDSGGALVFLDSETERWFVGGIVSWGSMNCGEAGQYGVYTKVINYIPWIENIISDF
C4 cleavage on NP2-coated wells (SDS-PAGE Western blot): a new band corresponding to C4′α
